Reference: US20190002846A1, “POLYPEPTIDES HAVING DEMETHYLATING ACTIVITY” (Genencor International B.V., priority 2015, published 2019)

How the values were obtained:
[1] = Methanol formation by GC, lignin-derived compound; type: biochemical; details: enzyme 0.5 g/L, 25° C., approx. 48 h
Description: (§1) Model compounds syringic acid, syringol, 1,3-dimethoxybenzene and 3,5-dimethoxybenzoic acid (12 mM) were incubated with PPO7 from Example 2 (2% loading (w/w)) in 50 mM BisTris buffer pH 6.5 with 10 μM CuSO4. For syringic acid and syringol PPO2 from Example 2 was included as a control. Lignin and lignin-derived compounds (10 g/L) were incubated with PPO7 from Example 2 (0.5 g/L, 5% loading (w/w)). PPO2 from Example 2 was included as a control and incubated using the same conditions. Blanks prepared without the addition of enzyme were included. Incubations were performed in GC headspace vials with a total of 1 mL reaction volume at 25° C. for approximately 48 h while shaking. The reaction was stopped by adding 28 μL 1M HCl to lower the pH to ˜3. Samples were analyzed by GC for methanol formation. A calibration range of 0.23 to 11.5 mM methanol in buffer with HCl was included.

[2] = Methanol formation by GC, lignin; type: biochemical; details: enzyme 0.5 g/L, 25° C., approx. 48 h
Description: as §1

[3] = target: T1, RAC incubated with LPMO9B (Thermothelomyces thermophilus, UniProt G2QCJ3); assay: RAC hydrolysis assay with LPMO9B and PPO7 or AbTyr in the presence of phenolic reducing agents; type: biochemical, Myceliophthora thermophila; details: LPMO9B alone = 100%, or with added enzyme, pH 5.0, 50° C., 24 h
T1 construct: made in house; host or cells: Myceliophthora thermophila C1 strain W1L#100.1Δpyr5ΔAlp1
T1 sequence (G2QCJ3 19-323): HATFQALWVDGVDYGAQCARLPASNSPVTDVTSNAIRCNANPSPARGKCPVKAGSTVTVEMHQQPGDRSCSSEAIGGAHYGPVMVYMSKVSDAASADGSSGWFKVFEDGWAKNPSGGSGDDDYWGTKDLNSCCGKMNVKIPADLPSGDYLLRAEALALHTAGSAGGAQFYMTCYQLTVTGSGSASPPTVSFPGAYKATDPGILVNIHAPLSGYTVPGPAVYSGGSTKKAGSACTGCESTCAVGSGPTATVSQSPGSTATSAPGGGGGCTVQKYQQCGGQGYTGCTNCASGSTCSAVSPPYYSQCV
Description: Phenolic reducing agents were obtained from Sigma-Aldrich (St. Louis, Mo., USA). RAC was prepared as described above and dissolved in 50 mM phospate buffer (pH 5.0) to a final concentration of 1.5 mg/ml. Copper chloride was added to a final concentration of 2.5 μM and a phenolic reducing agent to a final concentration of 2 mM. LPMO9B (5 μg/ml) with or without PPO7 (5 μg/ml) or AbTyr (7.5 U/ml) were added and incubated for 24 h at 50° C. in a head-over-tail rotator in portions of 1 mL total volume (Stuart® rotator, Bibby Scientific LTD, Stone, UK) at 20 rpm. Products were analysed by HPAEC and MALDI-TOF MS as described previously. (Frommhagen M, Sforza S, Westphal A H, Visser J, Hinz S W, Koetsier M J et al. Discovery of the combined oxidative cleavage of plant xylan and cellulose by a new fungal polysaccharide monooxygenase. Biotechnology for Biofuels. 2015; 8:101. doi:10.1186/s13068-015-0284-1). The Activity denoted as Activity * represents total release of non-oxidized and C1-oxidized gluco-oligosaccharides from RAC incubated with LPMO9B in the presence of a phenolic reducing agent and with addition of either AbTyr or PPO7. […] Standard deviations were less than 2%.

[4] = Conversion of syringic acid by purified PPO, difference absorbance spectra after 24 h; type: biochemical; details: 12 mM syringic acid, purified enzyme 0.048 g/L, pH 6.5, 10 μM CuSO4, room temperature
Description: Syringic acid (12 mM, 2.38 g/L) was incubated with PPO7 and PPO2 from Example 5 (0.048 g/L, 2% loading (w/w)) in 50 mM BisTris buffer pH 6.5 with 10 μM CuSO4. Blank prepared without the addition of enzyme was included. Incubations were performed in HPLC vials with a total of 750 μL reaction volume at room temperature for 24 h. The reaction was stopped by adding 21 μL 1M HCl to lower the pH to ˜3. Samples were filtrated and absorbance spectra were measured (230-1000 nm, 2 nm interval). […] It is to be noted that any change in absorbance in time indicates syringic acid conversion.

[5] = Catechol oxidase activity assay: initial rate of 3-methoxycatechol oxidation at 400 nm (pH, copper and temperature optima); type: biochemical
Description: PPO activity was determined by measuring the initial rate of 3-methoxycatechol oxidation at 400 nm (extinction coefficient used: ε 1200 M^−1cm^−1). One unit of activity is defined as the amount of PPO activity that oxidizes 1 μmol of 3-methoxycatechol to quinone per minute. Substrate was used at a concentration of 4 mM.
The pH optima were determined by measuring the initial rate of 3-methoxycatechol oxidation with varying pHs, at room temperature and using a CuSO4 concentration of 10 μM. The pH was varied in the range of pH3-9 using Carmody buffers. Enzyme loading was applied resulting in A400 absorbance values in the range of 0.1-1. Protein concentration was determined using the BCA method.
Optimal copper concentrations for the PPOs were determined at the optimal pH by varying the concentration of CuSO4 in the range of 1-1000 μM. In these experiments the pH was controlled using 50 mM Bis-Tris buffer pH 7.0.
Temperature optima were determined by measuring A400 absorbance after 1 h incubation at temperatures in the range of 20 to 70° C. In these experiments the pH was controlled using 50 mM Bis-Tris buffer pH 7.0. Copper concentrations of (20 or 50 μM) were used to prevent chemical oxidation as background activity at higher copper concentrations.

B1: PPO7: Myceliophthora thermophila C1 polyphenoloxidase with demethylating activity, mature form SEQ ID NO: 45 (protein, listed as Myceliophthora thermophila)
chain: NPMHKRWKPNAPRNPDFPLDEVDKLEESIMPNVEAWMSKRPAKYSNCTLENAGIRREWSDLSVDERKEYISAVLCLQSKPSKIPEGEVPGALSRFDDFVATHMTMAGQLHSPTNLFAAHRYFIHAYEKALREECGYKGYQPYMNYDRYADDPLNTPLFDGSDSSMSGNGGPYNYSGIPQPFPKPYNLIPPAGGGGCVTEGPFRDMVVSLGPKGGLFHDIPRNPRADGLGSNPRCLRRDVNKYSARGARANYTYSAIMDNPDIDSFYNRYMGMPQLKGDPYPWGLHSSGHYLIGGDPGGDFYCSPGDPLFYFHHGMLDRVWWIWQMQDPENRVQAVPGTNTMPMPPLMAANLESEAAATTTHKRAVNVSDLVVDLGWTAPPVKLVDLNEQLGGLGGELCYIYV
- methanol ([1]; Carboxymodified lignin (corn) 10 g/L, blank 0): 0.35 mM
- methanol ([1]; Carboxymodified lignin (wheat)1 10 g/L, blank 0): 0.31 mM
- methanol ([1]; Carboxymodified lignin (wheat)2 10 g/L, blank 0): 0.33 mM
- methanol ([1]; Fractionated BioLignin 10 g/L, blank 0.28): 0.46 mM
- methanol ([1]; Lowest MW from lignin fractionation 10 g/L, blank 0.04): 1.43 mM
- methanol ([1]; Purified wheat straw BioLignin 10 g/L, blank 0.05): 0.21 mM
- methanol ([2]; Corn stover BioLignin 10 g/L, blank 0): 0.27 mM
- methanol ([2]; Wheat straw BioLignin 10 g/L, blank 0.10): 0.28 mM
- Activity: total release of non-oxidized and C1-oxidized gluco-oligosaccharides from RAC ([3]; reducing agent 3,4-dihydroxy-5-methoxybenzoic acid 2 mM): 22%
- Activity: total release of non-oxidized and C1-oxidized gluco-oligosaccharides from RAC ([3]; reducing agent 3,4-dihydroxy-5-methoxycinnamic acid 2 mM): 116%
- Activity: total release of non-oxidized and C1-oxidized gluco-oligosaccharides from RAC ([3]; reducing agent 3,4-dihydroxybenzoic acid 2 mM): 139%
- Activity: total release of non-oxidized and C1-oxidized gluco-oligosaccharides from RAC ([3]; reducing agent 3-hydroxy-4-methoxycinnamic acid 2 mM): 7558%
- Activity: total release of non-oxidized and C1-oxidized gluco-oligosaccharides from RAC ([3]; reducing agent 3-methylcatechol 2 mM): 104%
- Activity: total release of non-oxidized and C1-oxidized gluco-oligosaccharides from RAC ([3]; reducing agent 4-allyl-2,4-methoxyphenol 2 mM): 108%
- Activity: total release of non-oxidized and C1-oxidized gluco-oligosaccharides from RAC ([3]; reducing agent 4-hydroxy-3-methoxyphenylactone 2 mM): 131%
- Activity: total release of non-oxidized and C1-oxidized gluco-oligosaccharides from RAC ([3]; reducing agent caffeic acid 2 mM): 122%
- Activity: total release of non-oxidized and C1-oxidized gluco-oligosaccharides from RAC ([3]; reducing agent coniferyl aldehyde 2 mM): 562%
- Activity: total release of non-oxidized and C1-oxidized gluco-oligosaccharides from RAC ([3]; reducing agent ferulic acid 2 mM): 231%
- Activity: total release of non-oxidized and C1-oxidized gluco-oligosaccharides from RAC ([3]; reducing agent gallic acid 2 mM): 124%
- Activity: total release of non-oxidized and C1-oxidized gluco-oligosaccharides from RAC ([3]; reducing agent guaiacol 2 mM): 5143%
- Activity: total release of non-oxidized and C1-oxidized gluco-oligosaccharides from RAC ([3]; reducing agent hesperidin 2 mM): 771%
- Activity: total release of non-oxidized and C1-oxidized gluco-oligosaccharides from RAC ([3]; reducing agent homovanillic acid 2 mM): 580%
- Activity: total release of non-oxidized and C1-oxidized gluco-oligosaccharides from RAC ([3]; reducing agent vanillic acid 2 mM): 495%
- Spectral change caused by reaction products [4]: spectral increase between 300 and 500 nm
- Syringic acid conversion: negative peak in the difference absorbance spectra between 230 and 300 nm [4]: more significant for PPO7 than for PPO2
- pHopt ([5]; 3-methoxycatechol oxidation, room temperature, 10 μM CuSO4, Carmody buffers pH3-9): 7.0
- T range ([5]; >50% of maximum activity): 20-55 °C
- pH range ([5]; >50% of maximum activity): 6.5-8.0
- [CuSO4] range ([5]; >90% of maximum activity): 100 to 1000 µM
- Topt ([5]; A400 after 1 h incubation, 20 to 70° C., 50 mM Bis-Tris pH 7.0, 20 or 50 μM copper): 40 °C
- [CuSO4]opt ([5]; at optimal pH, 50 mM Bis-Tris buffer pH 7.0, CuSO4 varied 1-1000 μM): 400 µM
